{"source": "paper PMC13069688", "key": {"[1]": {"system": "LacI-Halo WT (Escherichia coli)", "test": "PBM real-time kinetics (kd/ka)", "details": "PBM: imaging buffer (Na+ + K+ about 30 mM; composition and pH not in the material), EMSA: 1 nM DNA, 0-500 nM LacI (monomer), 1x imaging buffer with 20, 100 or …"}, "[2]": {"system": "Q55N-LacI-Halo Q55N (Escherichia coli)", "test": "PBM real-time kinetics (kd/ka)", "details": "PBM: imaging buffer (Na+ + K+ about 30 mM; composition and pH not in the material), EMSA: 1 nM DNA, 0-500 nM LacI (monomer), 1x imaging buffer with 20, 100 or …"}, "[3]": {"system": "V52A-LacI-Halo V52A (Escherichia coli)", "test": "PBM real-time kinetics (kd/ka)", "details": "PBM: imaging buffer (Na+ + K+ about 30 mM; composition and pH not in the material), EMSA: 1 nM DNA, 0-500 nM LacI (monomer), 1x imaging buffer with 20, 100 or …"}, "[4]": {"system": "LacI-Halo WT (Escherichia coli)", "test": "EMSA", "details": "NaCl titration; Methods list 20, 100, 200 mM; Kd values only in figure; PBM: imaging buffer (Na+ + K+ about 30 mM; composition and pH not in the material); EMSA: 1 nM DNA, 0-500 nM LacI (monomer), 1x imaging buffer with 20, 100 or …"}, "[5]": {"system": "Q55N-LacI-Halo Q55N (Escherichia coli)", "test": "EMSA", "details": "NaCl titration; Methods list 20, 100, 200 mM; Kd values only in figure; PBM: imaging buffer (Na+ + K+ about 30 mM; composition and pH not in the material); EMSA: 1 nM DNA, 0-500 nM LacI (monomer), 1x imaging buffer with 20, 100 or …"}}, "data": [{"substance": "O1 operator (PBM)", "values": [{"measurement": "binding signal (KD/WT-KD(Osym))", "setting": "[1]; relative ka 0.66, kd 8.84 ± 0.12 e-4 s-1", "value": 6.1}, {"measurement": "binding signal (KD/WT-KD(Osym))", "setting": "[2]; relative ka 0.35, kd 22.79 ± 0.89 e-4 s-1", "value": 28.4}, {"measurement": "binding signal (KD/WT-KD(Osym))", "setting": "[3]; relative ka 0.72, kd 3.80 ± 0.06 e-4 s-1", "value": 2.6}]}, {"substance": "O2 operator (PBM)", "values": [{"measurement": "binding signal (KD/WT-KD(Osym))", "setting": "[1]; relative ka 0.42, kd 13.25 ± 0.35 e-4 s-1", "value": 14.1}, {"measurement": "binding signal (KD/WT-KD(Osym))", "setting": "[2]; relative ka 0.12, kd 36.53 ± 3.80 e-4 s-1", "value": 140}, {"measurement": "binding signal (KD/WT-KD(Osym))", "setting": "[3]; relative ka 0.58, kd 4.84 ± 0.10 e-4 s-1", "value": 4.1}]}, {"substance": "Osym 60 bp EMSA probe", "values": [{"measurement": "binding signal (fold KD increase, 50 to 200 mM NaCl)", "setting": "[4]", "value": 10}, {"measurement": "binding signal (fold KD increase, 50 to 200 mM NaCl)", "setting": "[5]", "value": 2}]}, {"substance": "Osym operator (PBM)", "values": [{"measurement": "binding signal (KD/WT-KD(Osym))", "setting": "[1]; reference, kd 2.14 ± 0.03 e-4 s-1", "value": 1}, {"measurement": "binding signal (KD/WT-KD(Osym))", "setting": "[2]; relative ka 0.89, kd 7.39 ± 0.13 e-4 s-1", "value": 3.6}, {"measurement": "binding signal (KD/WT-KD(Osym))", "setting": "[3]; relative ka 1.03, kd 0.89 ± 0.02 e-4 s-1", "value": 0.4}]}]}
